The values that follow come from IntAct's records for PubMed 22677173.

Sequences and labels used below:
B1: Spermatogenesis-defective protein 39 homolog (Homo sapiens), Q9H9C1 (parent)
chain: MNRTKGDEEEYWNSSKFKAFTFDDEDDELSQLKESKRAVNSLRDFVDDDDDDDLERVSWSGEPVGSISWSIRETAGNSGSTHEGREQLKSRNSFSSYAQLPKPTSTYSLSSFFRGRTRPGSFQSLSDALSDTPAKSYAPELGRPKGEYRDYSNDWSPSDTVRRLRKGKVCSLERFRSLQDKLQLLEEAVSMHDGNVITAVLIFLKRTLSKEILFRELEVRQVALRHLIHFLKEIGDQKLLLDLFRFLDRTEELALSHYREHLNIQDPDKRKEFLKTCVGLPFSAEDSAHIQDHYTLLERQIIIEANDRHLESAGQTEIFRKHPRKASILNMPLVTTLFYSCFYHYTEAEGTFSSPVNLKKTFKIPDKQYVLTALAARAKLRAWNDVDALFTTKNWLGYTKKRAPIGFHRVVEILHKNNAPVQILQEYVNLVEDVDTKLNLATKFKCHDVVIDTYRDLKDRQQLLAYRSKVDKGSAEEEKIDALLSSSQIRWKN
partner: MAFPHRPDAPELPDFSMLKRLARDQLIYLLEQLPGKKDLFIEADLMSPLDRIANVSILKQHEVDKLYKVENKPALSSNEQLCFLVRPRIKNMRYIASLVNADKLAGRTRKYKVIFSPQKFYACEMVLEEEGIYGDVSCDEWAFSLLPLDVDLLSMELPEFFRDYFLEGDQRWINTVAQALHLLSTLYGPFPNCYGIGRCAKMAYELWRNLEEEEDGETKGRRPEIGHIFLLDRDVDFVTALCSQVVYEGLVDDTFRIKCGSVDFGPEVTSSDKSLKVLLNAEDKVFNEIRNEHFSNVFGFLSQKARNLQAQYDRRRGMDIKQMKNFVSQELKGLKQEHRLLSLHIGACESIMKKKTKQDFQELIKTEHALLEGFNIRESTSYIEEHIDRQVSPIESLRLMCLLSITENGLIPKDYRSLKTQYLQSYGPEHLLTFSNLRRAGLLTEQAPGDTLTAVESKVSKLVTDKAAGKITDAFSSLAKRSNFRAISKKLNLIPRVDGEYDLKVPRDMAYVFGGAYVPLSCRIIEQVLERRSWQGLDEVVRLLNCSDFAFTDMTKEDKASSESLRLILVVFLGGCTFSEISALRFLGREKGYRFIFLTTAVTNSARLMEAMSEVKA

The test covers variants of B1. The following applies: with vp33b_human VPS33B.
Regarding MNRTKGDEEEFWNSSKFKAFTFDDEDDELSQLKESKRAVNSLRDFVDDDDDDDLERVSWSGEPVGSISWSIRETAGNSGSTHEGREQLKSRNSFSSYAQLPKPTSTYSLSSFFRGRTRPGSFQSLSDALSDTPAKSYAPELGRPKGEYRDYSNDWSPSDTVRRLRKGKVCSLERFRSLQDKLQLLEEAVSMHDGNVITAVLIFLKRTLSKEILFRELEVRQVALRHLIHFLKEIGDQKLLLDLFRFLDRTEELALSHYREHLNIQDPDKRKEFLKTCVGLPFSAEDSAHIQDHYTLLERQIIIEANDRHLESAGQTEIFRKHPRKASILNMPLVTTLFYSCFYHYTEAEGTFSSPVNLKKTFKIPDKQYVLTALAARAKLRAWNDVDALFTTKNWLGYTKKRAPIGFHRVVEILHKNNAPVQILQEYVNLVEDVDTKLNLATKFKCHDVVIDTYRDLKDRQQLLAYRSKVDKGSAEEEKIDALLSSSQIRWKN [Y11F], the “effect of a mutation on the interaction” value is given as “increasing interaction”.
